Laboratory results from patent US20260001891A1 (KEYMED BIOSCIENCES CHENGDU, published 2026).

B1: ADC-126 (antibody, human IgG1, V domains shown)
VH: QVQLQQSGAEVKKPGSSVKVSCKASGYTFTNYYIYWVRQAPGQGLEWIGGINPTSGGSNFNEKFKTRVTITVDESTNTAYMELSSLRSEDTAFYFCARQGLWFDSDGRGFDFWGQGSTVTVSS
VL: DIQMTQSPSSLSASVGDRVTITCRSSQNIVHSNGNTYLDWYQQTPGKAPKLLIYKVSNRFSGVPSRFSGSGSGTDFTFTISSLQPEDIATYYCFQYSHVPWTFGQGTKLQITR
modifications: linker-drug LD-105 (maleimide) coupled to cysteine sulfhydryls after TCEP reduction; average drug loading y=4.96 per antibody; positions not given
B2: ADC-128 (antibody, human IgG1, V domains shown)
VH: B1 VH
VL: B1 VL
modifications: linker-drug LD-13 coupled to cysteine sulfhydryls after TCEP reduction; average drug loading y=7.62 per antibody; positions not given
B3: ADC-129 (antibody, human IgG1, V domains shown)
VH: B1 VH
VL: B1 VL
modifications: linker-drug LD-99 coupled to cysteine sulfhydryls after TCEP reduction; average drug loading y=7.11 per antibody; positions not given

Molecular target: EGFR (human (endogenous on human cancer cell …, UniProt P00533 25-1210))
Test: cell-based or functional assay

Binder	IC50 of in vitro proliferation inhibition, EGFR-positive MDA-MB-468 cells (CCK8, 6 days) [nM]
B1	0.21
B2	0.21
B3	0.2
